The source of these data is patent publication US20090098142A1.

For assay [1], the target named is cynomolgus monkey IL-13 (NHP IL-13) (cynomolgus monkey). Kind of assay: cell-based or functional assay.
Assay [2] concerns the target native human IL-13 (human) (UniProt P35225). Kind of assay: cell-based or functional assay.

native human IL-13 (human), sequence (P35225 other isoform, or with tags, fused parts or gaps): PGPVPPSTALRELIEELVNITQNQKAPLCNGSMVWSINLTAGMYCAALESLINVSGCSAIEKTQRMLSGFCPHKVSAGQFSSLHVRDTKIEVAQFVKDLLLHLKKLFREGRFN
cynomolgus monkey IL-13 (NHP IL-13) (cynomolgus monkey), sequence (Q5I6E4 other isoform, or with tags, fused parts or gaps): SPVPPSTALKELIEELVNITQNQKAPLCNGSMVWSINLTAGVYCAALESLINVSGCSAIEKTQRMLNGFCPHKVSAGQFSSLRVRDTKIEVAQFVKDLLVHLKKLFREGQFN

B1: antibody with the murine heavy chain of MJ2-7 and a humanized light chain (antibody, part only; not given: humanized light chain, V domains shown, part only)
VH: EVQLQQSGAELVKPGASVKLSCTGSGFNIKDTYIHWVKQRPEQGLEWIGRIDPANDNIKYDPKFQGKATITADTSSNTAYLQLNSLTSEDTAVYYCARSEENWYDFFDYWGQGTTLTVSS
Regarding B1, in assay [1], the CD23 expression assay, non-human primate IL-13 at 1 ng/ml, IC50 stood at 0.308 nM. In assay [2], the STAT6 phosphorylation assay, native human IL-13 at 1 ng/ml, IC50 is 0.554 nM.
